According to patent US20140050743A1, “BINDING PROTEINS TO INHIBITORS OF COAGULATION FACTORS” (BAYER INTELLECTUAL PROPERTY GMBH, priority 2011, published 2014):
Numbering of substitutions follows the chain as printed.

B1: M16-D05: antibody, Vh SEQ ID NO: 213, Vl SEQ ID NO: 214 (antibody, listed as Homo Sapiens, V domains shown)
VH: EVQLLESGGGLVQPGGSLRLSCAASGFTFSAYWMAWVRQAPGKGLEWVSSISSSSSYIYYADSVKGRFTISRDNSKNTLYLQMNSLRAEDTAVYYCARVTEGGLDYWGQGTLVTVTS
VL: QSVLTQPPSASGTPGQRVTISCSGSSSNIGNNAVNWYQQLPGTAPKLLIYRNNQRPSGVPDRFSGSKSGTSASLAISGLRSEDEADYYCQSYDSSLSGWVFGGGTKLTVL
B2: M25-E05: antibody, Vh SEQ ID NO: 219, Vl SEQ ID NO: 220 (antibody, listed as Homo Sapiens, V domains shown)
VH: EVQLLESGGGLVQPGGSLRLSCAASGFTFSNAWMSWVRQAPGKGLEWVSSIHWNGGYIGYAESVKGRFTISRDNSKNTLYLQMNSLRAEDTAVYYCARVTLDAVDYWGQGTLVTVTS
VL: B1 VL with S94N, S95R, S97T, G98A
B3: M18-A10: antibody, Vh SEQ ID NO: 215, Vl SEQ ID NO: 216 (antibody, listed as Homo Sapiens, V domains shown)
VH: EVQLLESGGGLVQPGGSLRLSCAASGFTFSSYGMSWVRQAPGKGLEWVSGISGSGGSTYYADSVKGRFTISRDNSKNTLYLQMNSLRAEDTAVYYCARDGGYDELDYWGQGTLVTVTS
VL: QSVLTQPPSASGTPGQRVTISCTGSSSNIGAGYVVHWYQQLPGTAPKLLIYDNNKRPSGVPDRFSGSKSGTSASLAISGLRSEDEADYYCAAWDDSLSAWVFGGGTKLTVL
B4: M16-A03: antibody, Vh SEQ ID NO: 211, Vl SEQ ID NO: 212 (antibody, listed as Homo Sapiens, V domains shown)
VH: EVQLLESGGGLVQPGGSLRLSCAASGFTFSSYAMSWVRQAPGKGLEWVSGISGSGGSTFYADSVKGRFTISRDNSENTLYLQMNSLRAEDTAVYYCARQTSSGLAGYSYGLDPWGQGTLVTVTS
VL: B3 VL with V34D, D52S, K55Q, A92G, A99G
B5: M14-G07-28: antibody, Vh SEQ ID NO: 181, Vl SEQ ID NO: 182 (antibody, listed as Homo Sapiens, V domains shown)
VH: EVQLLESGGGLVQPGGSLRLSCAASGFTFSSYAMSWVRQAPGKGLEWVGGISGSGGSTYYADSVKGRFTISRDNSKNTLYLQMNSLRAEDTAVYYCARQGRTSFYLDVWGQGTLVTVSS
VL: QSVLTQPPSASGTPGQRVTISCSGSSSNIGSYYVYWYQQLPGTAPKLLIYDNNQRPSGVPDRFSGSKSGTSASLAISGLRSEDEADYYCVAWDDSYSGHWVFGGGTKLTVL
B6: M14-G07-29: antibody, Vh SEQ ID NO: 183, Vl SEQ ID NO: 184 (antibody, listed as Homo Sapiens, V domains shown)
VH: B5 VH with T28R, G49S
VL: B5 VL with S31A, D94W, Y96W, H99T
B7: M14-G07-30: antibody, Vh SEQ ID NO: 185, Vl SEQ ID NO: 186 (antibody, listed as Homo Sapiens, V domains shown)
VH: B5 VH with G49S
VL: B5 VL with S27R, Y32F, Y96L
B8: M14-G07-31: antibody, Vh SEQ ID NO: 187, Vl SEQ ID NO: 188 (antibody, listed as Homo Sapiens, V domains shown)
VH: B5 VH
VL: B5 VL with S31A, Y32F, D94W, Y96L, H99T
B9: M14-G07-32: antibody, Vh SEQ ID NO: 189, Vl SEQ ID NO: 190 (antibody, listed as Homo Sapiens, V domains shown)
VH: B5 VH with T28R
VL: B5 VL with S31A, N53R, Y96L
B10: M14-G07-33: antibody, Vh SEQ ID NO: 191, Vl SEQ ID NO: 192 (antibody, listed as Homo Sapiens, V domains shown)
VH: B5 VH with T28R
VL: B5 VL with S27R, S31A, Y32F, D94W
B11: M14-G07-34: antibody, Vh SEQ ID NO: 193, Vl SEQ ID NO: 194 (antibody, listed as Homo Sapiens, V domains shown)
VH: B5 VH with T28R
VL: B5 VL with S26T, N53R, Y96L, H99T
B12: M14-G07-37: antibody, Vh SEQ ID NO: 199, Vl SEQ ID NO: 200 (antibody, listed as Homo Sapiens, V domains shown)
VH: B5 VH with G49S, Q99E, R101E
VL: B5 VL with Y96W
B13: M14-G07-1: antibody, Vh SEQ ID NO: 127, Vl SEQ ID NO: 128 (antibody, listed as Homo Sapiens, V domains shown)
VH: B5 VH with T28R
VL: B5 VL with S27R, Y32F, Y96W, H99T
B14: M14-G07-2: antibody, Vh SEQ ID NO: 129, Vl SEQ ID NO: 130 (antibody, listed as Homo Sapiens, V domains shown)
VH: B5 VH
VL: B5 VL with S23C, S27R, Y96W, H99T

Key:
[1] = Affinity by surface plasmon resonance (Biacore), immobilized Fab, analyte rivaroxaban; type: binding; settings: Table 6, immobilized Fabs, SPR (Biacore)
Description: “Binding affinity” refers to the strength of the sum total of noncovalent interactions between a single binding site of a molecule and its binding partner. Unless indicated otherwise, as used herein, “binding affinity” refers to intrinsic binding affinity which reflects a 1:1 interaction between members of a binding pair (e.g. an antibody and an antigen). The dissociation constant “KD” is commonly used to describe the affinity between a molecule (such as an antibody) and its binding partner (such as an antigen) i.e. how tightly a ligand binds to a particular protein. Ligand-protein affinities are influenced by non-covalent intermolecular interactions between the two molecules Affinity can be measured by common methods known in the art, including those described herein. In one embodiment, the “KD” or “KD value” according to this invention is measured by using surface plasmon resonance assays using a Biacore T100 instrument (GE Healthcare Biacore, Inc.) according to Example 5. The dissociation equilibrium constant (KD) was calculated based on the ratio of association (kon) and dissociation rated (koff) constants, obtained by fitting sensograms with a first order 1:1 binding model using Biacore Evaluation Software. Other suitable devices are BIACORE(R)-2000, a BIACORE (R)-3000 (BIAcore, Inc., Piscataway, N.J.), or ProteOn XPR36 instrument (Bio-Rad Laboratories, Inc.).
Binding affinities of Fab-fragments were determined by surface plasmon resonance analysis on a Biacore T100 instrument (GE Healthcare Biacore, Inc.). Fab fragments were diluted to a final concentration of 10 μg/ml in 10 mM sodium acetate, pH 4.5, and immobilized on a CM5 chip (GE Healthcare Biacore, Inc.) at levels of 3000-5000RU by amine-coupling chemistry for flow cells 2, 3 and 4, respectively. Flow cell 1 was used as a reference. […] Sensograms were generated after in-line reference cell correction followed by buffer sample subtraction. The dissociation equilibrium constant (KD) was calculated based on the ratio of association and dissociation rated constants, obtained by fitting sensograms with a first order 1:1 binding model using BiaEvaluation Software.

[2] = system: rivaroxaban induced FXa inhibition; test: Functional neutralization of rivaroxaban in a biochemical Factor Xa activity assay; settings: Table 6, 0.05 nM FXa, 0.6 nM rivaroxaban
Experimental: Serial dilutions of test compounds in assay buffer (50 mM HEPES pH 7.8, 250 mM NaCl, 6 mM CaCl2, 0.01% Brij35, 1 mM glutathione, 4 mM EDTA, 0.05% bovine serum albumin) were performed (typical concentrations ranging from 5 μM to 0.0007 μM).
20 μL of the diluted test compounds were placed in 384 well microtiter plates (Greiner, Frickenhausen, Germany), followed by the addition of 10 μL of a 1:400 dilution (250 μM) of the FXa substrate Pefafluor Xa (100 mM in DMSO, Loxo, Dossenheim, Germany) in assay buffer. […] Simultaneously, control reactions without rivaroxaban were started.
During incubation at 32° C., reaction progress curves were monitored using a fluorescence microtiter plate reader (e.g Tecan Ultra Evolution, Tecan Group Ltd., Mannedorf, Switzerland; excitation 360 nm, emission 465 nm).
The dilution of FXa was chosen that in the control reactions the reaction kinetics was linear, and less than 50% of the substrate was consumed (typical final FXa concentration in the assay: 0.05 nM). […] Results are depicted in FIG. 1.

[3] = ELISA-based activity assay of antibody variants without a competition step; type: binding; parameters: key: +++: Variants with an average ratio above reference plus 2×SD; +/−: variants with a ratio below reference minus 2×SD; ++: All variants with a performance in between both thresholds; −: Variants with a ratio below 0.5; settings: Table 10, multiple substitutions within M14-G07, variant to reference ratio (reference 2-fold improved over wt)
Experimental: To determine the activity of the mutated antibody variants on compound from Example 1K an equilibrium or dissociation limited ELISA assay format was used. Briefly, MTP plates (Nunc Maxisorp black, 460518) were coated with 4 μg/ml streptavidin (Calbiochem, 189730) diluted in coating buffer (Candor Bioscience GmbH, 121500) and incubated over night at 4° C. After washing with PBST, plates were blocked with 100% Smart Block (Candor Bioscience GmbH, 113500) in PBST for 1 h at room temperature and the washing step was repeated. Plates were incubated with compound from Example 1K at varying concentrations (0.3-200 nM) for 1 h at 37° C., washed with PBST and antibody fragments were immobilized by adding 25 μl of the crude bacterial cultures for 1 h at room temperature. After washing with PBST a competition step or the immediate detection was performed. […] For the detection of the residually bound Fabs a HRP-coupled anti-lambda antibody (Sigma, A5175) diluted in 10% Smart Block in PBST was added for 1 h at room temperature. After washing 10 μM Amplex Red (Invitrogen, A12222) were added and incubated for 10 to 30 min at room temperature followed by measurement of the fluorescence signal.
Provided in Table 9 are several examples of single and/or double amino acid substitutions introduced into the heavy and/or the light chain of M14-G07 (wt). Performance of the variants was analyzed in quadruples in the ELISA without a competition step and the FXa deinhibition assay (FXa DIA). In the ELISA, averages were calculated and normalized to the respective average expression level. Overall performance of variants was evaluated by comparing the variant to wt ratio from 2-3 independent experiments. Variants with an average ratio above wt plus 2×SD (standard deviation of the ratio) were considered as improved and are marked with “++”, whereas variants with a ratio below wt minus 2×SD were considered as reduced in their binding affinity and are marked with “−”. All variants with a performance in between both thresholds are marked with “+/−”. Variants with average fluorescence counts below the negative control (non-expressing cells) plus 3×SD were considered as non-binding and marked with “−−” with none of the variants fulfilling this criteria. In the FXa deinhibition assay averages were calculated and overall performance of variants was evaluated by comparing the variant to wt ratio from 2-3 independent experiments. Variants with an average ratio above wt plus 2×SD were considered as improved and are marked with “++”, whereas variants with a ratio below wt minus 2×SD were considered as either reduced in their binding affinity or non-binding and are marked with “−−”. All variants with a performance in between both thresholds are marked with “+/−”. Variants not analyzed are marked with “nd” (not determined). CDRs were defined according to Kabat.
Provided in Table 10 are examples of combined amino acid substitutions within M14-G07 antibodies. While not every combination is provided in Table 10, it is contemplated that the anti-rivaroxaban antibody may comprise any combination of modifications provided. Variant performance was analyzed in quadruples in the ELISA without a competition step. Averages were calculated, average background signals determined on a streptavidin coated plate without compound from Example 1K were subtracted if the compound from Example 1K concentration used for coating was below 10 nM and signals were normalized to the respective average expression level. Overall performance of variants was evaluated by comparing the variant to reference ratio from 2-3 independent experiments using a 2-fold improved reference variant as compared to wt. Variants with an average ratio above reference plus 2×SD are marked with “+++”, whereas variants with a ratio below reference minus 2×SD are marked with “+/−”. All variants with a performance in between both thresholds are marked with “++”. […]

Row | Molecule | Kd [1] | EC50 [2] | ELISA [3]
1 | B1 | < 500 nM | < 1000 nM | 
2 | B2 | < 500 nM | < 1000 nM | 
3 | B3 | < 500 nM | < 1000 nM | 
4 | B4 | < 500 nM | < 2000 nM | 
5 | B5 |  |  | +++
6 | B6 |  |  | +++
7 | B7 |  |  | +++
8 | B8 |  |  | +++
9 | B9 |  |  | +++
10 | B10 |  |  | +++
11 | B11 |  |  | +++
12 | B12 |  |  | +++
13 | B13 |  |  | +++
14 | B14 |  |  | +++
